Source: patent publication US7638284B2, “Immunoglobulin A inducing protein and uses therefor” (The Curators of the University of Missouri, priority 2000, dated 2009)

Test system: IGIP transcripts
Assay: RT-PCR of IGIP transcripts in stimulated monocyte derived dendritic cells
Assay type: cell-based
Conditions: human monocyte derived dendritic cells
Procedure: PBMCs were labeled with anti-CD14 microbeads at 4° C. for 45 minutes, washed three times in sorting buffer. Pure CD14+blood monocytes were then separated by AutoMACS, and cultured at 37° C. for 6 days in cRPMI with 1400 U/ml Leukine (rhGM-CSF) and 10 ng/ml rhIL-4. Non-adherent cells were collected at day six, and purity of dendritic cells was determined by flow cytometry.
Enriched dendritic cell cultures were stimulated with rhCD40L, Pam3CSK, Poly I:C, LPS, CpG DNA, or PMA and Ionomycin for 0, 12, 18, 24, 48, and 72 hours. Total RNA was extracted from harvested cells and treated with DNase to remove any potential contaminating DNA. IGIP was amplified by RT-PCR.
Human dendritic cells (DC) were derived from peripheral blood monocytes by culturing in GM-CSF and IL-4 for 6-7 days. IGIP transcripts were detected by RT-PCR in total RNA from approximately 10^6 monocyte derived DC (mDC) following either Toll-like receptor (TLR) binding or CD40 ligation.

B1: CD40L: rhCD40L used to stimulate dendritic cell cultures (protein, UniProt P29965 113-261, looked up)
CD40 ligand, soluble form: MQKGDQNPQIAAHVISEASSKTTSVLQWAEKGYYTMSNNLVTLENGKQLTVKRQGLYYIYAQVTFCSNREASSQAPFIASLCLKSPGRFERILLRAANTHSSAKPCGQQSIHLGGVFELQPGASVFVNVTDPSQVSHGTGFTSFGLLKL
  loss of IGIP transcripts post stimulation: no longer detectable after 48 hours
  time after stimulation at which IGIP was detectable: approximately 12 hours
  time of peak IGIP expression: 24 h
